The text below walks through data of patent publication US20180237502A1 (INTEGRATED BIOTHERAPEUTICS, published 2018).

As a reminder, the EC50 is the concentration at which the effect is half-maximal. The low end stands for greater potency, the high end for weaker potency.

Assay [1] addresses T1, SUDV GPdTM (Sudan virus (SUDV), UniProt Q66814 33-637).
T1 sequence: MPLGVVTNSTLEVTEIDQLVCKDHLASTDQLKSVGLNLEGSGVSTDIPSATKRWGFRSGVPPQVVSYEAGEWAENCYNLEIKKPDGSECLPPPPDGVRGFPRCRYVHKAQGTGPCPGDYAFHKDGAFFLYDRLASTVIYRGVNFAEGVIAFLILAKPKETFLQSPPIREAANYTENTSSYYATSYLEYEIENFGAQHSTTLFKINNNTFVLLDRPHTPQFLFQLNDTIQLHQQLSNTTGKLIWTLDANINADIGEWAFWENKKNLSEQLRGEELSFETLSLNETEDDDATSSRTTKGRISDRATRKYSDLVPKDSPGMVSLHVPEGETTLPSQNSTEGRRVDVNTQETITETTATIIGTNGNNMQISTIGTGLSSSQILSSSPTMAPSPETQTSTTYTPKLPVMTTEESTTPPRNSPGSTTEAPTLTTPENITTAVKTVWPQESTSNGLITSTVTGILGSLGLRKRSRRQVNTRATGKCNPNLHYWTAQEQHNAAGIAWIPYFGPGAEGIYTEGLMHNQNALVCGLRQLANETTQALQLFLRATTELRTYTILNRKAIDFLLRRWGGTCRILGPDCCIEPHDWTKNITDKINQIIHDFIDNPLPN

For assay [2], the target named is SUDV GPddmuc (Sudan virus (SUDV), UniProt Q66814 33-632).
Assay [3] addresses T2, MARV GPddmuc (Marburg virus (MARV), UniProt P35253 19-637).
T2 construct: also called Marburg virus glycoprotein GPddmuc
Description: ELISA, purified GPddmuc immobilized, serial dilutions of purified mouse mAb. (ELISA stands for enzyme-linked immunosorbent assay.)

B1: murine monoclonal antibody 16G8 (antibody, V domains shown)
VH: EVQLQESGPGLVKPGASVKISCKASGYSFTGYYMNWVKQSPEKSLEWIGEINPSTGGTTYNQKFKAKATLTVDKSSSTAYMQLKSLTSEDSAVYYCVRYSHYYGSGSWYFDVWGTGTTVTVSS
VL: DIQMTQSPASLSASVGETVTITCRASENIYSNLAWYQQKQGKSPQLLVNAATNLADGVPSRFSGSGSGTQFSLKINSLQPEDFGSYYCQHFYVTPYMFGSGTKLEIKR
notes: also called m16G8
As for B1, the EC50 in assay [1] is over 10 µg/mL.

B2: murine monoclonal antibody 4B8 (antibody, V domains shown)
VH: EVQLQESGPGILQPSQTLSLTCSFSGFSLRTLGMGVGWIRQSSGKGLEWLAHIWWSDENYYNPALKSRLTISKDTSKNQVFLRIANVDTAETATYYCARIAYDGYFDYWGQGTSLTVSS
VL: KFPSQLLLLLLFGIPGDRVTITCKASEDIYNRLAWYQQKPGNAPRLLISGATSLETGVPSRFSGSGSGKDYTLSITSLQTEDVATYYCQQYWTTPWTFGGGTKLEIKR
notes: also called m4B8
As to B2, the 50% effective concentration (EC50) in assay [2] was found to be 0.095 µg/mL; in assay [1], 0.088 µg/mL. In assay [3], the binding result is “no binding”.

B3: murine monoclonal antibody 8C4 (antibody, V domains shown)
VH: EVQLQESGPELKKPGETVKISCKASGYTFTTYGMSWVKQAPGKGLKWMGRINTYSGVPTYADEFKGRFAFSLENSASTAYLQINNLKNEDTATYFCARGDGGHWFANWGQGTLVTVSA
VL: DIQMTQSPSSLSASLGGKVTITCKASQDINKNIAWYQHKPGKGPRLLIWYKSALQPGIPSRFSGSGSGRDYSFSISNLEPEDIATYSCLQYDNLPPTFGGGTKLEIKR
notes: also called m8C4
For B3, the EC50 in assay [1] is 0.15 µg/mL.

B4: murine monoclonal antibody 2D8 (antibody, V domains shown)
VH: EVQLQESGGELVRPGTSVKISCKASGYTFTNFWLGWIKERPGHGLEWIGDIYPGGHYTNYNENFKGKATLTADTSSNTAYMQVSSLTSEDSAVYFCFTQYYDMDYWGQGTSVTVSS
VL: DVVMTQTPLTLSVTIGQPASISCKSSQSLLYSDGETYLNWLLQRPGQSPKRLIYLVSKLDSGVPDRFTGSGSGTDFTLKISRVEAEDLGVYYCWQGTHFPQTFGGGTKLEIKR
B4: the EC50 in assay [1] is over 10 µg/mL.

B5: murine monoclonal antibody 17C6 (antibody, V domains shown)
VH: EVQLQESGPGLVQPSQSLSITCTVSGFSLTSYGVHWVRQSPGKGLEWLGVIWSGGSTDYNAAFISRLSISKDNSKSQVFFKMNSLQADDTAIYYCARNWFDYDNYYSMDYWGQGTSVTVSS
VL: DIQMTQTTSSLSASLGDRVTISCRASQDISNYLNWYQQKPDGTVKLLIYYTSRLHSGVPSRFSGSGSGTDFSLTISNQEPEDIATYYCQQYSNLPWTFGGGTKLEIKR
B5: a half-maximal response in assay [1] (EC50) required 2 µg/mL.
